Source: the DeepSol protein solubility set

Assay: soluble on expression in E. coli; label from the status in PepcDB or PDB records

In the case of “MAHHHHHHMETVDALDYSELVALNQEEALRRVLASYPRIGLQATELGRARRIVQRALYHKRAGDAVFLAYTSNLISSGLRDTFACLARDRLIDGFISTAGGIEEDAIKCLGKTLVGQFSLDGRELRRCGVNRTGNLLVPNDNYCHFENFFMPVLKHLHELQRESRWETMTAPSEMIAAIGAALGCKHPETCSDSLLYWCYRNNIPVFSPALTDGSIGDMIYFYNYSKKGLVLDPIVDVVRLRELGCRNRRCDDSQGGNRSQNNNGRTTCIVLGGGLPKHHLLQNVRADTVVYVSTGLEVDASPSSCNVAEDRANGVLLDNCEVVRVHGDASFVFPLLLCKAETSADTHKDVAA”, the “soluble on expression in E. coli” value is reported as “soluble”.
In the case of “MASNRGQLNHELSKLFNELWDADQNRMKSGKDYRISLQGKAGYVPAGSNQARDSASFPLFQFVDEEKLKSRKTFATFISLLDNYEMDTGVAEVVTPEEIAENNNFLDAILETKVMKMAHDYLVRKNQAKPTRNDFKVQLYNIWFQLYSRAPGSRPDSCGFEHVFVGESKRGQEMMGLHNWVQFYLQEKRKNIDYKGYVARQNKSRPDEDDQVLNLQFNWKEMVKPVGSSFIGVSPEFEFALYTIVFLASQEKMSREVVRLEEYELQIVVNRHGRYIGTAYPVLLSTNNPDLY”, the “soluble on expression in E. coli” value is reported as “soluble”.
For “SELSQLLNEIRANYEKILTRNQIETVLSTRIQLEEDISKKMDKDEEALKAAQAELKEARRQWHHLQVEIESLHAVERGLENSLHASEQHYQMQLQDLETVIEGLEKELQEVRRGIEKQLQEHEMLLNTKMRLEQEIATYRHLLEKEEIRYYGCIQGGKKDKKPTTSRVGFVLPSAIINEISFTTKVPQKYENENVETVTKQAILNGSIVKESTEAHGTIQTEKVDEVIKEWEGSFFKDNPRLRKKSVSLRFDLHLAATDEGCLETKQDNLPDIEVRLIMRRSCSIPSIKPPSTAN”, the “soluble on expression in E. coli” value was “soluble”.
In the case of “MGSDKIHHHHHHMITISHITAKNMYKSLEERINKFPQGAPPSDTLYKILNVLYTEQEAKLVAQLPIKPFRVKTAAKIWSVSESEAYRVLDKLASKALILDIEDNKGKKYIMPPPMAGFFEFAMMRTRHDIDQKLLAELYYQYMNVEEDFIKDLFYSTETKLGRVYVQEEVLTNDNEVSILDYERATHIIDESTHIGISMCYCRHRMQHVGKACDAPMDICMTFDNVANSLINNKFARRVDKIECKELLHQAYEHNLVQCGENVRKGVTFICNCCGCCCEAMVAAKRFGNLHPVQTTSFIPNINHENCVKCGKCITACPIDAISKVKEDGKEYIKIDEDRCLGCGVCVRNCHKNSIMLLKRDEKIITPANSVHRAVLMAIEKGQLQNLIFDNNALASHRAMGAILSAILKLEPAKKILASKQLKSVYLDKLLSMNDK”, the “soluble on expression in E. coli” value is reported as “not soluble”.
For “MIVNAFYNEKGVGDTLLIETGEVTFENREWERRGDVARIFDRETKQVAGFNIFNSSKYFDITANGKVDLTEELVALMNQVIEKAGFEPEIVADLTPKFVVGYVESKEKHPNADKLNVCQINVGGEVLQIVCGAPNIDAGQKVVVAKIGAVMPSGLIIKPSNLRGEDSFGMVCAARELAIPNAPTEKGILVLEDSATPGEEFPVNFLEHHHHHH”, the “soluble on expression in E. coli” value was “not soluble”.
In the case of “MIAAYENSKWEPVKWENDMHCAVKIQDKNQWRRGQIIRMVTDTLVEVLLYDVGVELVVNVDCLRKLEENLKTMGRLSL”, the “soluble on expression in E. coli” value is reported as “soluble”.
For “NEHLGGIYDYLRTRRMQTLTELERTTTIETKTTREAIPETEAKADYRRQKEVAKQLRTLERTVATCEERIGKLESELQAIEMLLQDPKHATDANLFERYAGMKQELEKAMEDWEQASEALSEAQG”, the “soluble on expression in E. coli” value was “not soluble”.
With “MSLNADTLEDIKKAGVIKAATEMQFPPFDFLEGDKYVGVDRDLMDEVAKELGVKVEYIDLPWTSVLPGLEAGKFDLVIAPVTITKERLARYAFTLPISEGTAALMKRADDDSITKPEDIAGKTIGGGKGTSQLGQIKEYAAALPGKVEFKEYVDSNQSYADLAAGRVDASVNSYPNLAYAAAQRPETFAVVLPPFGKTTYFSWVSRLGEKDASLVEAVNAALLKLGEDGRMSAIHEKWFGKGVDLPKEGHHHHHH” the “soluble on expression in E. coli” value was “soluble”.
For “MGSDKIHHHHHHMSIVGNVENLINGVGELWNKYVKHEFILKMRDGSLPLDIFRYYLIQDGKYVEDMLRALLIASSKGPIDKVTKILNLVFSSRDKGLETHGKLYSKLDISRDVIVKTGYNLINYAYTRHLYYYANLDWNKFLVAWTPCMFGYSIVGDYVIDSPNEVYKTWASFYASTEYKKRIEAILYALDEVSITEDLLNIFINSVRFEIGFWDASLRKDPTVY”, the “soluble on expression in E. coli” value was “not soluble”.
In the case of “MGSDKIHHHHHHMYVNRIGTFRDHPDLYGVSVYFQGCDAKPKCYMCHNPETWHLSEEYKRPSEVVTKIIDEKLSSLLRYFPKAALVFLGGEPLAPYNREEMLSLSKMFKEKYGERLTVVLFTWRLPKDIVKENLLKYVQYVDEFVMGRYLHTYRRDGFPASKNQIHIDRRTFERMIEAVLRRGHYEGSVFVRKRI”, the “soluble on expression in E. coli” value is reported as “not soluble”.
For “GPGSMSNIKKVQTEADRLLKKVNEGLDAYDELHEKLANAPNASAKERLEGDLKRELKKLQRHREAMKSFMQNDDYKEKMKMQVSRKKIEERMETFRAIEREMKTKAFSNEGLASAALERADSATEQWLKDAIEEGRKKIELLEYEVQKANNGRVRRGKQQKSEYQIRLENLQTHFFKWESLLRMVNNEELDTDEVDDLQEPIQKVLEDDVDLDVMEDMSIYDSFDIPEPKAKPVVPFDVSDYEDKKVQSPKTTAKAKTPTSTVQAKPSPFITSPKETAASPPAAKAASSTPVPSSMQQPALAQAPQQQLLPPTANSPADDDIGEEEPVPEWMDDDMDTANDDTFGDAAMSGGFTIGSLAEMASATNKVTQDWEKSQKPVGSLEPKTVKVTDPVHGAPEEKRKPTPPVAAPTPNAWERRAAEQQSRQKVQQQQQKQAPEAASPVAPLGPVAAAAEASAPEAVTTSLINPVAATSPSTPAGSANTDPIQPFPPIPGAAPGSKFTPKKIHELLDMSLGNLPHTLDVQRQRPYEPPNAIDAIPYFPQEVLPVLSNKDVYHQMDLDTLFFIFYYHQKSYQQYFAAKELKARSYRYHTKQQRWYQRLERPQTTTETEERGSYTFFDFEDKWDHDRIDDFLFEYKYLENELH”, the “soluble on expression in E. coli” value was “soluble”.
With “MKKKIAEYEVGEQVDIFLLIKTATKGIASNGKPFLTVILQDPSGDIEAKLWDVSPEVEKQYVAETIVKVAGDILNYKGRIQLRVKQIRVANENEVTDISDFVEKAPVKKEDMVEKITQYIFEMRNPNIQRLTRHLLNKHQNEFLDYPAATKNHHEFVSGLAYHVVSMLDLAKAISNLYPSLDKDLLYAGVILHDLGKVIELSGPISTTYTLEGNLLGHISIMVNEIGKAADELQIDAEEVLILQHIVLSHHGKAEWGSPKPPLVKEAEILHYIDNLDAKMNMMDRALGRTKPGEYTERVFALDNRSFYKPSFHN” the “soluble on expression in E. coli” value was “not soluble”.
In the case of “MIGNFTIVDGHVHTFSSEEVSLKVLKSFNKIYNIEFENPGTGTIEDVLNNMKNEGIDYTVMANFAPVKILHANNKWTLEEARKHPNLIPLVSFHPDMDVSFTSLLEEYISDGAKGIKLHPMAQGFDPRDERLKGLYEFCNDIAFPIVFHCGRVANARLNSFSDVETLEPLIAMYENISFVLTHMADGNVKDVLRLSRTYKNVYFDTSIVISGYPPIRETNKPSWLDDSIPEGVINEIGAHRVVFGSDYPWGSPAWDLKRFMSMKLDDEEKKNILGENAMKLFLNTAYN”, the “soluble on expression in E. coli” value is reported as “soluble”.
For “MDNYEKVRVVGRGAFGVCWLCRGKNDASHQKVIIKLINTHGMTEKEENSIQSEVNLLKKVQHPLIIGYIDSFIMDNQLGIVMQYAEGGTLERLINDQRAIKDSNMREYFPEKTVLDYFTQILIALNHMHQKNIVHRDLKPQNILMNRRKTVLKLSDFGISKELGTKSAASTVIGTPNYLSPEICESRPYNQKSDMWSLGCVLYELLQLERAFDGENLPAIVMKITRSKQNPLGDHVSNDVKMLVENLLKTHTDKRPDVSQLLSDPLVLPYLISIHCDLGRIEPPPTDKRKPSASLSSRLRTYPTQSTLRPYSLSSNAPTTHLTQLTPMPSHIDSGFFSSGRTSNQRTQSRSQVHSKY”, the “soluble on expression in E. coli” value was “soluble”.
For “MKTVRIETFGCKVNQYESEYMAEQLEKAGYVVLPDGNAAYYIVNSCAVTKEVEKKVKRLIKSIRNRNKNAKIILTGCFAQLSPDEAKNLPVDMVLGIDEKKHIVDHINSLNGKQQVVVSEPGRPVYEKVKGSFEDRTRSYIKVEDGCDNTCTYCAIRLARGTRIRSKPLEIFKEEFAEMVMKGYKEIVITGVNLGKYGKDMGSSLAELLKVIEKVPGDYRVRLSSINVEDVNDEIVKAFKRNPRLCPHLHISVQSGSDDVLKRMGRKYKISDFMRVVDKLRSIDPDFSITTDIIVGFPGETDADFQRTLELVEKVEFSRVHIFRFSPRPGTPASRMEGGVPESKKKERLDVLKEKAKDVSIRYRKRIIGKERKVLAEWYVMKGVLSGYDEYYVKHEFVGNRVGEFHSVRVKSLSEEGVISCRADMVEGKVPARGLEHHHHHH”, the “soluble on expression in E. coli” value was “soluble”.
With “MGSDKIHHHHHHMTHPDGLFYQLIQDLAQGKGLPHLIWRLSQILNRPVLLTNSVHRVLVFHDPHHLNLDLDEFLYVPPVKLDEADFLNRSEHSLHHGQLTLNGQVFPFVYLPLLAGDYCLGYIFVLETYPLADSLKPKSLSAEDKETIFEASMPLLLCLKNSSEVSLRQEQYRDDFIRDILYNNYDSKAAIHEKAKSWGWNLQGSLLALVIDLPDRDFKTAREILPRLFNHSSPISAYINLQLVIILNINGLKKVKLKTALNNFINSFLDRLADHGKDRSSIGIGIGSGVPSITDLYKSYQEAKVAWELGKVFDHKSVCYFEEMGFLKFIFTQPARELEEFSQRVLGPLLEYDQAENTGLLDSLRVFIEYKCQIAECSKALYVHENTLRNRIKKIEQVTGFDLRRVDHMVNVYIALQVLNLGKDD” the “soluble on expression in E. coli” value was “not soluble”.
For “MSLSGKIRVDIPPCLANSLIMPRLPTFLHQYPGIALELCSSDRQVDLLREDFDCVVRTEPLHAPGILTRPLGKLRRVNCASPQYLARFGYPENLDDLASHAMVHYSLTPGVSSPGFAFETPHGMQWVKTGGMLTVNSTETWHTACLAGLGIIQTPRIAVREALRAGTLIEILPQYRAAPLPVTLHYPHRRNLSRRVHLFMVWLTETIKEAAEGHHHHHH”, the “soluble on expression in E. coli” value was “not soluble”.
For “VIIPDINLLLYAVITGFPQHRRAHAWWQDTVNGHTRIGLTYPALFGFLRIATSARVLAAPLPTADAIAYVREWLSQPNVDLLTAGPRHLDIALGLLDKLGTASHLTTDVQLAAYGIEYDAEIHSSDTDFARFADLKWTDPLRE”, the “soluble on expression in E. coli” value was “not soluble”.
With “MRTILIDWFSDAVREYISRKEAVHLAASLVDRALPMFNIDKMRFQLVGITSMRIAVKYEEIFPPILSNTRHSFDGAILYWKVRLHRRNAHTILDRIMLCTENELGVCRQLLTQGFATSYPSLA” the “soluble on expression in E. coli” value was “not soluble”.
In the case of “MPGKLLWGDIMELEAPLEESESQKKERQKSDRRKSRHHYDSDEKSETRENGVTDDLDAPKAKKSKMKEKLNGDTEEGFNRLSDEFSKSHKSRRKDLPNGDIDEYEKKSKRVSSLDTSTHKSSDNKLEETLTREQKEGAFSNFPISEETIKLLKGRGVTYLFPIQVKTFGPVYEGKDLIAQARTGTGKTFSFAIPLIERLQRNQETIKKSRSPKVLVLAPTRELANQVAKDFKDITRKLSVACFYGGTSYQSQINHIRNGIDILVGTPGRIKDHLQSGRLDLSKLRHVVLDEVDQMLDLGFAEQVEDIIHESYKTDSEDNPQTLLFSATCPQWVYKVAKKYMKSRYEQVDLVGKMTQKAATTVEHLAIQCHWSQRPAVIGDVLQVYSGSEGRAIIFCETKKNVTEMAMNPHIKQNAQCLHGDIAQSQREITLKGFREGSFKVLVATNVAARGLDIPEVDLVIQSSPPQDVESYIHRSGRTGRAGRTGICICFYQPRERGQLRYVEQKAGITFKRVGVPSTMDLVKSKSMDAIRSLASVSYAAVDFFRPSAQRLIEEKGAVDALAAALAHISGASSFEPRSLITSDKGFVTMTLESLEEIQDVSCAWKELNRKLSSNAVSQITRMCLLKGNMGVCFDVPTTESERLQAEWHDSDWILSVPAKLPEIEEYYDGNTSSNSRQRSGWSSGRSGRSGRSGGRSGGRSGRQSRQGSRSGSRQDGRRRSGNRNRSRSGGHKRSFD”, the “soluble on expression in E. coli” value is reported as “soluble”.
